Experimental findings from patent publication US20130315910A1 (Xencor, published 2013) are described below.

Assay in all cases: SPR
In general terms: SPR reads the build-up and loss of mass on a sensor chip optically.

In experiment [1] the target is T1, human FcγRIIb receptor protein (R&D Systems) (human, UniProt P31994 46-217).
T1 construct: Bought protein injected over captured antibody in Biacore; also called CD32b
T1 sequence (looked up): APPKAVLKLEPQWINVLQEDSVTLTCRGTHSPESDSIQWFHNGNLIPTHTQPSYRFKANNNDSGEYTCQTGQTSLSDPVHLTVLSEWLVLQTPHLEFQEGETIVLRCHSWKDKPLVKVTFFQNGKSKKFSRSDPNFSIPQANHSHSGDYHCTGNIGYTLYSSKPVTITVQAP

In experiment [2] the target is T2, human FcγRIIa (131R), His- and GST-tagged (human, UniProt P12318 34-217).
T2 construct: Expressed in HEK293T cells, purified by nickel chromatography; also called R131 FcγRIIa; not shown: 6xHis and GST tags of the pTT5 vector
T2 sequence (looked up): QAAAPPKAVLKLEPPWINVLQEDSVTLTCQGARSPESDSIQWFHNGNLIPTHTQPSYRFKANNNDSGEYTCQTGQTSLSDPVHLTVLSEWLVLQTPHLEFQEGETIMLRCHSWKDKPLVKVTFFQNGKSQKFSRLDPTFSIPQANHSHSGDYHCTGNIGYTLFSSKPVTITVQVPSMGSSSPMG

For experiment [3], the target named is T3, mFcγRIIb (Mus musculus, UniProt P08101).
T3 construct: extracellular region, C-terminal His- and GST-tag; also called mouse FcγRII
T3 sequence (receptor extracellular region, looked up): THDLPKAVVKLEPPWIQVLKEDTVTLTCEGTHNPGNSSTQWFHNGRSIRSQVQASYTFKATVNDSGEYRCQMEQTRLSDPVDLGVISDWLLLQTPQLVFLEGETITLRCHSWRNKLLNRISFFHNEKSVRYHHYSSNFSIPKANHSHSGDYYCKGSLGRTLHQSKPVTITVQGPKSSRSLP

The target of experiment [4] is T4, mFcγRIV.
T4 construct: also called mouse FcγRIV; not shown: C-terminal His and GST tags (named only on our card)
T4 chain: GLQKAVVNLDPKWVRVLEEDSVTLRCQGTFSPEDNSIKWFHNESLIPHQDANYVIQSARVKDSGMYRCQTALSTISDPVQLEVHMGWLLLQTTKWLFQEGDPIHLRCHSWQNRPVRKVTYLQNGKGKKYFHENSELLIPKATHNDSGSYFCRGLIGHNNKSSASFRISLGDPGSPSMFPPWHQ

Experiment [5] has as its target T5, cynoFcγRIIb (Macaca fascicularis, UniProt A0A140HDP4).
T5 construct: extracellular region, C-terminal His- and GST-tag; also called cynomolgus monkey FcγRIIb
T5 sequence (receptor extracellular region): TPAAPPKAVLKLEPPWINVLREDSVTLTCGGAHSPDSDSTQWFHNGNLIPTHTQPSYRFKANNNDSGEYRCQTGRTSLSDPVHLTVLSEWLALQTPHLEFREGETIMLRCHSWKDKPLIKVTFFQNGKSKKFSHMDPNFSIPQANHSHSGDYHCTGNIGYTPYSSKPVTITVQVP

Experiment [6] deals with T6, cynoFcγRIIIa (Macaca fascicularis, UniProt Q8SPW2).
T6 construct: extracellular region, C-terminal His- and GST-tag; also called cynomolgus monkey FcγRIIIa
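Wherever Fold vs WT IgG1 (off-rate) is given: fold improvement over WT IgG1 so higher means slower dissociation than WT.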

T6 sequence (Q8SPW2 17-208): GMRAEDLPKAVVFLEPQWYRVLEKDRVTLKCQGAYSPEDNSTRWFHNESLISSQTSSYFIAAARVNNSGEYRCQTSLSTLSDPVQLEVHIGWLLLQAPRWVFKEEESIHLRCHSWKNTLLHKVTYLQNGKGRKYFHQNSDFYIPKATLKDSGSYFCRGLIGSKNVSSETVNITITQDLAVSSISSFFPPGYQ

B1: A327G (antibody, human IgG1, kappa)
heavy: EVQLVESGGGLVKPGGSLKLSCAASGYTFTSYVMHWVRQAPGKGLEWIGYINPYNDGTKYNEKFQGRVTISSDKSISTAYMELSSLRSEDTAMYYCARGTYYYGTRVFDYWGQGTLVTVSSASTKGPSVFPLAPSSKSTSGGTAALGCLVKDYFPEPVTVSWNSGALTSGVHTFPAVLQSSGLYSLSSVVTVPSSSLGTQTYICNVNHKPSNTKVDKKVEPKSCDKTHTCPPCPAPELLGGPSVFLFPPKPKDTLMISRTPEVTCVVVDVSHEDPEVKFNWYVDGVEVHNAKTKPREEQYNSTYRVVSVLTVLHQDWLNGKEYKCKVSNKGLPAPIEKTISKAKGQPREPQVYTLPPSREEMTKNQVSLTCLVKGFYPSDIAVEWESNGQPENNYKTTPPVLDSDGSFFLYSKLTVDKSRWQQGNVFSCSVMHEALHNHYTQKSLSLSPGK
light: DIVMTQSPATLSLSPGERATLSCRSSKSLQNVNGNTYLYWFQQKPGQSPQLLIYRMSNLNSGVPDRFSGSGSGTEFTLTISSLEPEDFAVYYCMQHLEYPITFGAGTKLEIKRTVAAPSVFIFPPSDEQLKSGTASVVCLLNNFYPREAKVQWKVDNALQSGNSQESVTEQDSKDSTYSLSSTLTLSKADYEKHKVYACEVTHQGLSSPVTKSFNRGEC
notes: HuAM4G7 anti-CD19 IgG1 (m1) with this Fc substitution, EU index; copies: 2 + 2
For the molecule B1, the “Fold vs WT IgG1” value in experiment [1] was determined as 0.353 fold; in experiment [2], 0.319 fold. The dissociation constant (Kd) (as a rule, the equilibrium constant for the complex coming apart) was 4160 nM in experiment [1] and 2690 nM in experiment [2]. The “Fold vs WT IgG1 (off-rate)” value in experiment [3] came out at 1.45 fold; in experiment [4], 1.23 fold; in experiment [5] it was 0.903 fold; in experiment [6], 0.443 fold.

B2: S239Q (antibody, human IgG1, kappa)
heavy: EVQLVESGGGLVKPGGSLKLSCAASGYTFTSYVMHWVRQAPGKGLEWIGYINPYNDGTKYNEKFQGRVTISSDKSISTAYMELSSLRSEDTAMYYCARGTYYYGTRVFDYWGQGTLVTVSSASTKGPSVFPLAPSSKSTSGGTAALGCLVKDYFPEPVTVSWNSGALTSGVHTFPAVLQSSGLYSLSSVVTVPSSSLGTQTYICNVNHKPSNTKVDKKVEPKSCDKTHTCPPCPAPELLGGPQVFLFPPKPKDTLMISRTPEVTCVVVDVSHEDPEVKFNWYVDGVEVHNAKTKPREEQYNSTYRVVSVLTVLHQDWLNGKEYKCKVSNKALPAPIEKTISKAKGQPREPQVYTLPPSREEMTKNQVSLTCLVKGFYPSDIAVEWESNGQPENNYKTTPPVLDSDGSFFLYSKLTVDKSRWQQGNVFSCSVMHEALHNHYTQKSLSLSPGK
light: DIVMTQSPATLSLSPGERATLSCRSSKSLQNVNGNTYLYWFQQKPGQSPQLLIYRMSNLNSGVPDRFSGSGSGTEFTLTISSLEPEDFAVYYCMQHLEYPITFGAGTKLEIKRTVAAPSVFIFPPSDEQLKSGTASVVCLLNNFYPREAKVQWKVDNALQSGNSQESVTEQDSKDSTYSLSSTLTLSKADYEKHKVYACEVTHQGLSSPVTKSFNRGEC
notes: as for B1
With B2, the “Fold vs WT IgG1” value in experiment [1] is 0.729 fold; in experiment [2], 0.853 fold. In addition, the Kd in experiment [1] was 2010 nM; in experiment [2], 1010 nM. Further, the “Fold vs WT IgG1 (off-rate)” value in experiment [3] is 1.74 fold; in experiment [4], 0.711 fold; in experiment [5], 0.401 fold; in experiment [6] it was 0.622 fold.

B3: H268N (antibody, human IgG1, kappa)
heavy: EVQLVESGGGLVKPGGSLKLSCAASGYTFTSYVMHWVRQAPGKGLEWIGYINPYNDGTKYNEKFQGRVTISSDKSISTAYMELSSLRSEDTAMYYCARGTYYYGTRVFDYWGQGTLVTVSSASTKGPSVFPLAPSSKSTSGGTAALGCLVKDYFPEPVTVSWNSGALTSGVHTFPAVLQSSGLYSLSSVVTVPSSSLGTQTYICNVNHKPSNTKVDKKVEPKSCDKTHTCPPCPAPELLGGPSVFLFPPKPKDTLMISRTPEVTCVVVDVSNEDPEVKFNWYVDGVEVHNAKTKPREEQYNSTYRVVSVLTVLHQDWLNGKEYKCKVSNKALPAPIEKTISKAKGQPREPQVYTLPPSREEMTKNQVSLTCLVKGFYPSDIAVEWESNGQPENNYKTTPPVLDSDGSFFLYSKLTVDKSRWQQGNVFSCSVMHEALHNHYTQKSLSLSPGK
light: DIVMTQSPATLSLSPGERATLSCRSSKSLQNVNGNTYLYWFQQKPGQSPQLLIYRMSNLNSGVPDRFSGSGSGTEFTLTISSLEPEDFAVYYCMQHLEYPITFGAGTKLEIKRTVAAPSVFIFPPSDEQLKSGTASVVCLLNNFYPREAKVQWKVDNALQSGNSQESVTEQDSKDSTYSLSSTLTLSKADYEKHKVYACEVTHQGLSSPVTKSFNRGEC
notes: as for B1
For B3, the entries for the “Fold vs WT IgG1” value in experiment [1] and in experiment [2] were 1.17 fold and 1.79 fold, respectively. Moreover, the Kd in experiment [1] stood at 1250 nM; in experiment [2], 481 nM. The “Fold vs WT IgG1 (off-rate)” value in experiment [3] came to 1.6 fold; in experiment [4] it was 1.02 fold; in experiment [5] it was 1.34 fold; in experiment [6], 0.99 fold.

B4: S267E/L328I (antibody, human IgG1, kappa)
heavy: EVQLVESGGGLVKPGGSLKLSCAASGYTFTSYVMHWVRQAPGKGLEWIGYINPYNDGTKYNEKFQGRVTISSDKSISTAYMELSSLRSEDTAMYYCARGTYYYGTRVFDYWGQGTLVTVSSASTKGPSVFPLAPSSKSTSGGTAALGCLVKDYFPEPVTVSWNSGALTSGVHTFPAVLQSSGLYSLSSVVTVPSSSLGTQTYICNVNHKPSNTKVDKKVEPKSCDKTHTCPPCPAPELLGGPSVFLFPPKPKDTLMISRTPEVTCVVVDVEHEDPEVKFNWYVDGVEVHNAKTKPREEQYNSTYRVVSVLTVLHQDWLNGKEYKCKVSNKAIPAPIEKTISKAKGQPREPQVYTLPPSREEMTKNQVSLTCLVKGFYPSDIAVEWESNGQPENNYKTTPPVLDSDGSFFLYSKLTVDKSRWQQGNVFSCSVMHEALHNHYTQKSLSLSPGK
light: DIVMTQSPATLSLSPGERATLSCRSSKSLQNVNGNTYLYWFQQKPGQSPQLLIYRMSNLNSGVPDRFSGSGSGTEFTLTISSLEPEDFAVYYCMQHLEYPITFGAGTKLEIKRTVAAPSVFIFPPSDEQLKSGTASVVCLLNNFYPREAKVQWKVDNALQSGNSQESVTEQDSKDSTYSLSSTLTLSKADYEKHKVYACEVTHQGLSSPVTKSFNRGEC
notes: HuAM4G7 anti-CD19 IgG1 (m1) with these Fc substitutions, EU index; copies: 2 + 2
Take B4: the “Fold vs WT IgG1” value worked out at 53.4 fold in experiment [1] and 74 fold in experiment [2]. Further, the dissociation constant Kd in experiment [1] is 27.5 nM; in experiment [2], 11.6 nM. Further, the “Fold vs WT IgG1 (off-rate)” value in experiment [3] was determined as 2.1 fold; in experiment [4] it was 0.588 fold; in experiment [5], 0.831 fold; in experiment [6], 0.437 fold.

B5: S239N (antibody, human IgG1, kappa)
heavy: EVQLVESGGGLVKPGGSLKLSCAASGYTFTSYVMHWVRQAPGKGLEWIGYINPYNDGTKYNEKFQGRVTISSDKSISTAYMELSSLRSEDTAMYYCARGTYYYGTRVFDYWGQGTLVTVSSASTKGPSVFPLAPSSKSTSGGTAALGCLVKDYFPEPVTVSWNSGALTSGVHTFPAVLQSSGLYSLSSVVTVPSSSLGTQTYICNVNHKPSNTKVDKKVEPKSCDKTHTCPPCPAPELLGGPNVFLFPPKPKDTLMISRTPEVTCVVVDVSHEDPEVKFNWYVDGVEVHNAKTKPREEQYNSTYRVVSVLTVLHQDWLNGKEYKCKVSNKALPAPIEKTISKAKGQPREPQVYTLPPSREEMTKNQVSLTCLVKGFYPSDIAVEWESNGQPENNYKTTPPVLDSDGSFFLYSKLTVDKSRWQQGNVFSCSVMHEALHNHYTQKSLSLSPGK
light: DIVMTQSPATLSLSPGERATLSCRSSKSLQNVNGNTYLYWFQQKPGQSPQLLIYRMSNLNSGVPDRFSGSGSGTEFTLTISSLEPEDFAVYYCMQHLEYPITFGAGTKLEIKRTVAAPSVFIFPPSDEQLKSGTASVVCLLNNFYPREAKVQWKVDNALQSGNSQESVTEQDSKDSTYSLSSTLTLSKADYEKHKVYACEVTHQGLSSPVTKSFNRGEC
notes: as for B1
With B5, the “Fold vs WT IgG1” value in experiment [1] is 1.45 fold; in experiment [2] it was 0.867 fold. The Kd in experiment [1] is 1010 nM; in experiment [2] it was 990 nM. For the same molecule, the “Fold vs WT IgG1 (off-rate)” value in experiment [3] stood at 0.61 fold; in experiment [4] it was 1.07 fold; in experiment [5], 0.66 fold; in experiment [6], 1.15 fold.

B6: H268Q (antibody, human IgG1, kappa)
heavy: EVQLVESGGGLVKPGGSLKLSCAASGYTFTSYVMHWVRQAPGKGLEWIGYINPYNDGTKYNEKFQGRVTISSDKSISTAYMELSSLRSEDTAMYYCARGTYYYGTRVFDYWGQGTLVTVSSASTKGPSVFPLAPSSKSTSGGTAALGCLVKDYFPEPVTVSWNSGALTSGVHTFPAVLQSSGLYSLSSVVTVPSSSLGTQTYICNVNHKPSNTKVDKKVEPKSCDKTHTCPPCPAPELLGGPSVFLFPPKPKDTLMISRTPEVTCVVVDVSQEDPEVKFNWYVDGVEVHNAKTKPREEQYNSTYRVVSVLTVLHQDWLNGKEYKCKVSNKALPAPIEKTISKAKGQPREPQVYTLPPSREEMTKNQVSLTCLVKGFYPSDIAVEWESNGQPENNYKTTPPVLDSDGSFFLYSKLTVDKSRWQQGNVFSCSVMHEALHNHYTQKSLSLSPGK
light: DIVMTQSPATLSLSPGERATLSCRSSKSLQNVNGNTYLYWFQQKPGQSPQLLIYRMSNLNSGVPDRFSGSGSGTEFTLTISSLEPEDFAVYYCMQHLEYPITFGAGTKLEIKRTVAAPSVFIFPPSDEQLKSGTASVVCLLNNFYPREAKVQWKVDNALQSGNSQESVTEQDSKDSTYSLSSTLTLSKADYEKHKVYACEVTHQGLSSPVTKSFNRGEC
notes: as for B1
On to B6, for which the binding result in experiment [1] was “no binding”. The “Fold vs WT IgG1” value in experiment [2] turned out to be 1.58 fold. Further, the Kd in experiment [2] came to 544 nM. In addition, the “Fold vs WT IgG1 (off-rate)” value in experiment [3] was found to be 0.877 fold; in experiment [4], 1.08 fold; in experiment [5], 0.864 fold; in experiment [6] it was 0.983 fold.

B7: S267E/L328Q (antibody, human IgG1, kappa)
heavy: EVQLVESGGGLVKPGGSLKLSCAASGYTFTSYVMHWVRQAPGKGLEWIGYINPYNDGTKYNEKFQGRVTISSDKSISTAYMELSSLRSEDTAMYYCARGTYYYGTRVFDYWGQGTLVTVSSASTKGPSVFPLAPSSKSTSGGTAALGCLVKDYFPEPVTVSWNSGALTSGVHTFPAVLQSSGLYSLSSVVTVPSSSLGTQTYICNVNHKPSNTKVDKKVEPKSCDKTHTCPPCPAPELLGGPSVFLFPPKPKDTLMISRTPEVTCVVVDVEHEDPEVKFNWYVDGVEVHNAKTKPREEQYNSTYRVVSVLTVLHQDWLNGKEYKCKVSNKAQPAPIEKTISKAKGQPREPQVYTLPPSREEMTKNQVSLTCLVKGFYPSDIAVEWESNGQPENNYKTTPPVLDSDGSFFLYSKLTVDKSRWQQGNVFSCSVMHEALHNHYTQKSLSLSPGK
light: DIVMTQSPATLSLSPGERATLSCRSSKSLQNVNGNTYLYWFQQKPGQSPQLLIYRMSNLNSGVPDRFSGSGSGTEFTLTISSLEPEDFAVYYCMQHLEYPITFGAGTKLEIKRTVAAPSVFIFPPSDEQLKSGTASVVCLLNNFYPREAKVQWKVDNALQSGNSQESVTEQDSKDSTYSLSSTLTLSKADYEKHKVYACEVTHQGLSSPVTKSFNRGEC
notes: as for B4
Take B7: in experiment [1], the “Fold vs WT IgG1” value turned out to be 12.1 fold. In experiment [1], this molecule returned a Kd of 121 nM. Further, the “Fold vs WT IgG1 (off-rate)” value was 0.881 fold in experiment [3], 0.454 fold in experiment [4], 0.367 fold in experiment [5] and 0.124 fold in experiment [6].

B8: V266I (antibody, human IgG1, kappa)
heavy: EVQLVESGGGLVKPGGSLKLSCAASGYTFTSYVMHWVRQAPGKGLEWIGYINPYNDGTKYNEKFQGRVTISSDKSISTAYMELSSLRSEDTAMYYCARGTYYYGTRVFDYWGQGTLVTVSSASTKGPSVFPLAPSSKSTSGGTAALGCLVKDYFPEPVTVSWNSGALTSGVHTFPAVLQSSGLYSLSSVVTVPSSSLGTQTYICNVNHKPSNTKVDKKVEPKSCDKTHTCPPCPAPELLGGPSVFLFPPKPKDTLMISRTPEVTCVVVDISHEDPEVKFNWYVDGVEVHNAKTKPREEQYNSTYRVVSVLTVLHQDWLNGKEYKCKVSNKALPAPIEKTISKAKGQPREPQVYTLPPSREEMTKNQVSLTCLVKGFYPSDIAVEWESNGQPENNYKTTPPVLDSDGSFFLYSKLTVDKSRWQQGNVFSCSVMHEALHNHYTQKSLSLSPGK
light: DIVMTQSPATLSLSPGERATLSCRSSKSLQNVNGNTYLYWFQQKPGQSPQLLIYRMSNLNSGVPDRFSGSGSGTEFTLTISSLEPEDFAVYYCMQHLEYPITFGAGTKLEIKRTVAAPSVFIFPPSDEQLKSGTASVVCLLNNFYPREAKVQWKVDNALQSGNSQESVTEQDSKDSTYSLSSTLTLSKADYEKHKVYACEVTHQGLSSPVTKSFNRGEC
notes: as for B1
With B8, the binding result in experiment [1] and in experiment [2] was “no binding” each time. Further, the “Fold vs WT IgG1 (off-rate)” value in experiment [3] came to 1.42 fold; in experiment [4], 1.19 fold; in experiment [5], 0.826 fold; in experiment [6], 0.979 fold.

B9: S298Q (antibody, human IgG1, kappa)
heavy: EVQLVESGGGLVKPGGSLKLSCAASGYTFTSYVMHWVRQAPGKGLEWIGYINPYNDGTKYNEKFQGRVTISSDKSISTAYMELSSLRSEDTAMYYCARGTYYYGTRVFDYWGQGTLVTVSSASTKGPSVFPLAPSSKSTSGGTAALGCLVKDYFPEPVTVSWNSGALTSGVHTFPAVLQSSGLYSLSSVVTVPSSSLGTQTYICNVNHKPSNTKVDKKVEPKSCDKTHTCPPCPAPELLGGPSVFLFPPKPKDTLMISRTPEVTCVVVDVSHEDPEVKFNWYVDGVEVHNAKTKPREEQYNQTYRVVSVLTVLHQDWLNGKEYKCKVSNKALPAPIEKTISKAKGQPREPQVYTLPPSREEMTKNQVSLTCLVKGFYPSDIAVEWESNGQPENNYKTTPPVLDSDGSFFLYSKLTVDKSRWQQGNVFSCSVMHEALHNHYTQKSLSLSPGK
light: DIVMTQSPATLSLSPGERATLSCRSSKSLQNVNGNTYLYWFQQKPGQSPQLLIYRMSNLNSGVPDRFSGSGSGTEFTLTISSLEPEDFAVYYCMQHLEYPITFGAGTKLEIKRTVAAPSVFIFPPSDEQLKSGTASVVCLLNNFYPREAKVQWKVDNALQSGNSQESVTEQDSKDSTYSLSSTLTLSKADYEKHKVYACEVTHQGLSSPVTKSFNRGEC
notes: as for B1
For B9, the binding result in experiment [1] and in experiment [2] was “no binding” in each case. Moreover, the “Fold vs WT IgG1 (off-rate)” value was found to be 1.41 fold in experiment [3], 0.291 fold in experiment [4], 0.714 fold in experiment [5] and 0.271 fold in experiment [6].

B10: D265E (antibody, human IgG1, kappa)
heavy: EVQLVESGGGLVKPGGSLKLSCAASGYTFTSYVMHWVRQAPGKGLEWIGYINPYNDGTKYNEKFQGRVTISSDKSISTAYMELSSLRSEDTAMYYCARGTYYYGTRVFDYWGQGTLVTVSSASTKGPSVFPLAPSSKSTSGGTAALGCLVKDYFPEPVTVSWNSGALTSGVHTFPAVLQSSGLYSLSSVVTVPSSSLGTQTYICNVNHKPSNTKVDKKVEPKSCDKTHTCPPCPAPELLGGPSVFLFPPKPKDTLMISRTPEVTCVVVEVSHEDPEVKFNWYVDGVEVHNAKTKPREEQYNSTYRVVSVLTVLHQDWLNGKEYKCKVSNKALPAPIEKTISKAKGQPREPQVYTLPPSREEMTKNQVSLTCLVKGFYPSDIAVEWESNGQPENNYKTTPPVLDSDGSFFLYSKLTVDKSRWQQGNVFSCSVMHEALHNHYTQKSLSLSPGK
light: DIVMTQSPATLSLSPGERATLSCRSSKSLQNVNGNTYLYWFQQKPGQSPQLLIYRMSNLNSGVPDRFSGSGSGTEFTLTISSLEPEDFAVYYCMQHLEYPITFGAGTKLEIKRTVAAPSVFIFPPSDEQLKSGTASVVCLLNNFYPREAKVQWKVDNALQSGNSQESVTEQDSKDSTYSLSSTLTLSKADYEKHKVYACEVTHQGLSSPVTKSFNRGEC
notes: as for B1
For the molecule B10, the “Fold vs WT IgG1” value worked out at 0.417 fold in experiment [1] and 0.307 fold in experiment [2]. The dissociation constant (Kd) in experiment [1] is 3520 nM; in experiment [2] it was 2790 nM. The “Fold vs WT IgG1 (off-rate)” value is 0.833 fold in experiment [3], 0.526 fold in experiment [4], 0.648 fold in experiment [5] and 0.636 fold in experiment [6].
